Experimental data as given in patent publication US9057062B2, “Enzyme produced by Arthrobacter globiformis” (MATSUTANI CHEMICAL INDUSTRY CO., LTD., priority 2011, dated 2015).

Legend:
Assay type in all cases: biochemical, Arthrobacter globiformis M30
[1] = target: ketose 3-epimerase (D-PE) (Arthrobacter globiformis, UniProt A0A1L7NQ96)
[2] = substrate: O=C(CO)[C@H](O)[C@H](O)[C@H](O)CO; assay: Km and Vmax of the present enzyme; settings: other: 30° C., in the presence of Mg2+ ions
Description: (§1) The enzyme reaction was performed at 30° C. for 30 min, and the amount of the enzyme that produced 1 micromole of D-fructose in 1 min under these conditions was taken as one unit. After the reaction, the reaction mixture was put in a boiling liquid for 3 min to quench the reaction. After deionization, the product D-fructose was measured by HPLC analysis. Protein measurement was performed by using the Bradford method, using 5 μL of the enzyme liquid added to a Bradford solution (250 μl) and evenly stirred therein.
(§2) The Km and Vmax of the present enzyme for D-psicose and D-fructose were measured. The measurement was made by measuring enzyme activity at 30° C. in the presence of Mg^2+ ions.

[3] = substrate: O=C(CO)[C@@H](O)[C@H](O)[C@H](O)CO; assay: Km and Vmax of the present enzyme; settings: other: 30° C., in the presence of Mg2+ ions
Description: as §1, §2

Molecule	Effect of metal ion on enzyme activity [1]	Km [2] [mM]	Vmax [2] [U/mg]	Km [3] [mM]	Vmax [3] [U/mg]
[Mn+2] [Mn^2+, divalent manganese ions]	activatable				
[Co+2] [Co^2+, divalent cobalt ions]	activatable				
ketose 3-epimerase, purified enzyme (Arthrobacter globiformis) (protein, disrupted with a high-pressure homogenizer to extract the enzyme; made in house; host or cells: Arthrobacter globiformis M30 (native producer); Purified by PEG fractionation, Q-Sepharose ion exchange and RESOURCE PHE hydrophobic chromatography) MKIGCHGLVWTGHFDAEGIRYSVQKTREAGFDLVEFPLMDPFSFDVQTAKSALAEHGLAASASLGLSDATDVSSEDPAVVKAGEELLNRAVDVLAELGATDFCGVIYSAMKKYMEPATAAGLANSKAAVGRVADRASDLGINVSLEVVNRYETNVLNTGRQALAYLEELNRPNLGIHLDTYHMNIEESDMFSPILDTAEALRYVHIGESHRGYLGTGSVDFDTFFKALGRIGYDGPVVFESFSSSVVAPDLSRMLGIWRNLWADNEELGAHANAFIRDKLTAIKTIELH		30.1	168	31.5	68.5
